From article doi:10.1101/2023.06.21.545551, “Intrinsically disordered regions in the transcription factor MYC:MAX modulate DNA binding via intramolecular interactions”

Experiments:
MYC(256-299) = MYC(256-299) (UniProt P01106-1); assay: NMR; SPR: 25 mM HEPES pH 8, 150 mM NaCl, 1 mM TCEP, 0.01% Tween-20, 3 mM EDTA, temperature not stated; NMR: 20 mM HEPES pH 7, 100 mM NaCl (E100; or E300), 2 mM TCEP, 5% D2O, 298 K (complexes) or 283 K (disordered fragments); settings: protein: recombinant; tags: His6-ZZ-TEV cleaved; 15N; blunt
Mb0 peptide MYC(11-34) = Mb0 peptide MYC(11-34) (UniProt P01106-1); assay: NMR; equimolar DNA; SPR: 25 mM HEPES pH 8, 150 mM NaCl, 1 mM TCEP, 0.01% Tween-20, 3 mM EDTA, temperature not stated; NMR: 20 mM HEPES pH 7, 100 mM NaCl (E100; or E300), 2 mM TCEP, 5% D2O, 298 K (complexes) or 283 K (disordered fragments); settings: protein: recombinant; tags: His6-MBP-TEV cleaved; 13C-MTC on C25; blunt
[1] = target: MYC(1-439)_C0,C25;MAX(2-160) (human?;human?, UniProt P01106-1;P61244 ;, C70A;C117A;C133A;C171A;C188A;C208A;C300A;C342A;C438A|); assay: NMR; 13C-MTC on C25; 10-fold DNA; SPR: 25 mM HEPES pH 8, 150 mM NaCl, 1 mM TCEP, 0.01% Tween-20, 3 mM EDTA, temperature not stated; NMR: 20 mM HEPES pH 7, 100 mM NaCl (E100; or E300), 2 mM TCEP, 5% D2O, 298 K (complexes) or 283 K (disordered fragments); settings: protein: recombinant;recombinant; tags: 13C-MTC label on C25;N-Strep-TEV, cleavable; copies: 1;1; blunt
[2] = target: T1, MYC(151-439);MAX(2-160) of commercial complex (human?;human?, UniProt P01106-1;P61244 ;, |); assay: SPR; negative control bound only by MYC(352-437):MAX; SPR: 25 mM HEPES pH 8, 150 mM NaCl, 1 mM TCEP, 0.01% Tween-20, 3 mM EDTA, temperature not stated; NMR: 20 mM HEPES pH 7, 100 mM NaCl (E100; or E300), 2 mM TCEP, 5% D2O, 298 K (complexes) or 283 K (disordered fragments); settings: protein: commercial;commercial; copies: 1;1; label: 5'-biotin on strand 1; blunt
[3] = target: T2, MYC(2-439) full-length;MAX(2-160) (human?;human?, UniProt P01106-1;P61244 ;, |); assay: as above; settings: protein: recombinant;recombinant; tags: none;N-Strep-TEV, cleavable; copies: 1;1; label: 5'-biotin on strand 1; blunt
[4] = target: T2, MYC(2-439) full-length;MAX(2-160); assay: SPR; range over canonical and mutant E-Boxes; SPR: 25 mM HEPES pH 8, 150 mM NaCl, 1 mM TCEP, 0.01% Tween-20, 3 mM EDTA, temperature not stated; NMR: 20 mM HEPES pH 7, 100 mM NaCl (E100; or E300), 2 mM TCEP, 5% D2O, 298 K (complexes) or 283 K (disordered fragments); settings: protein: recombinant;recombinant; tags: none;N-Strep-TEV, cleavable; copies: 1;1; label: 5'-biotin on strand 1; blunt
[5] = target: MYC(352-437);MAX(2-160) co-expressed (human?;human?, UniProt P01106-1;P61244 ;, |); assay: SPR; strongest of the four DNAs; Kd only in figure; SPR: 25 mM HEPES pH 8, 150 mM NaCl, 1 mM TCEP, 0.01% Tween-20, 3 mM EDTA, temperature not stated; NMR: 20 mM HEPES pH 7, 100 mM NaCl (E100; or E300), 2 mM TCEP, 5% D2O, 298 K (complexes) or 283 K (disordered fragments); settings: protein: recombinant;recombinant; tags: N-His6 uncleavable;none; copies: 1;1; label: 5'-biotin on strand 1; blunt
[6] = target: T1, MYC(151-439);MAX(2-160) of commercial …; assay: SPR; affinity between P3+P6 and full length; SPR: 25 mM HEPES pH 8, 150 mM NaCl, 1 mM TCEP, 0.01% Tween-20, 3 mM EDTA, temperature not stated; NMR: 20 mM HEPES pH 7, 100 mM NaCl (E100; or E300), 2 mM TCEP, 5% D2O, 298 K (complexes) or 283 K (disordered fragments); settings: protein: commercial;commercial; copies: 1;1; label: 5'-biotin on strand 1; blunt

T1 sequence (P01106 166-454, chain 1 of 2): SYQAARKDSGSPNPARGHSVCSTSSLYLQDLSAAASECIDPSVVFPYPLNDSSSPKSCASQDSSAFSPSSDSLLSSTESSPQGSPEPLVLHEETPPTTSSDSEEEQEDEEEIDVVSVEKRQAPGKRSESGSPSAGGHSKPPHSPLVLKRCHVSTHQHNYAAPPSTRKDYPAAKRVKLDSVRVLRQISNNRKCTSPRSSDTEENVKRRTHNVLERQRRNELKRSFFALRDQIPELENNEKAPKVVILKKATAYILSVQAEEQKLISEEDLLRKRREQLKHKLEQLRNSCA
T1 sequence (P61244 other isoform, or with tags, fused parts or gaps |, chain 2 of 2): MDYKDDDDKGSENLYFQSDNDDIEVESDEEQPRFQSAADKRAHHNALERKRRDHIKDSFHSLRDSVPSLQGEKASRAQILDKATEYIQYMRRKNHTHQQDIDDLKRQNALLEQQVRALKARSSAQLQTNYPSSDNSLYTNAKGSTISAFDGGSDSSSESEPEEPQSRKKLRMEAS
T2 sequence (P01106 17-454, chain 1 of 2): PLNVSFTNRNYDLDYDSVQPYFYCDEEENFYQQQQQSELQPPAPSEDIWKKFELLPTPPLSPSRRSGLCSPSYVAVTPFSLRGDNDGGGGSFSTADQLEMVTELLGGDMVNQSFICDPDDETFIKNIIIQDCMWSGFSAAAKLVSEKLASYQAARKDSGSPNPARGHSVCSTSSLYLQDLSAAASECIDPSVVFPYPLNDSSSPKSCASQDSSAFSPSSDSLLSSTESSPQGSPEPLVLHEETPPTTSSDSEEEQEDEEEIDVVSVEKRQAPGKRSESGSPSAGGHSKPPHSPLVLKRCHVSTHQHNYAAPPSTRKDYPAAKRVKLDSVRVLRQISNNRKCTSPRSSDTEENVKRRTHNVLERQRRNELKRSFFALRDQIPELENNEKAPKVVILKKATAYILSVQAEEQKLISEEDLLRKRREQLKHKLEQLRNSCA
T2 sequence (P61244 other isoform, or with tags, fused parts or gaps |, chain 2 of 2): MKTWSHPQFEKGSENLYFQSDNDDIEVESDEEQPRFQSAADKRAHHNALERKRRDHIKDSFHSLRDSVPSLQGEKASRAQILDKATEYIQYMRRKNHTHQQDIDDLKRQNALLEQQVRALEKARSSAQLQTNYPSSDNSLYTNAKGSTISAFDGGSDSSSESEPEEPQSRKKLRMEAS
MYC(256-299), sequence (P01106 other isoform, or with tags, fused parts or gaps): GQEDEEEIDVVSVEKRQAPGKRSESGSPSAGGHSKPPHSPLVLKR
MYC(1-439)_C0,C25;MAX(2-160), sequence (P01106 other isoform, or with tags, fused parts or gaps C70A;C117A;C133A;C171A;C188A;C208A;C300A;C342A;C438A|, chain 1 of 2): as the sequence (P01106 17-454, chain 1 of 2) above, with C24A, C69A, C116A, C132A, C170A, C187A, C207A, C299A, C341A, C437A counted along it
MYC(352-437);MAX(2-160) co-expressed, sequence (P01106 other isoform, or with tags, fused parts or gaps |, chain 1 of 2): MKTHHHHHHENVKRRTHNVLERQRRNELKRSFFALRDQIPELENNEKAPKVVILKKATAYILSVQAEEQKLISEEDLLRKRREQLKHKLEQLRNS
MYC(352-437);MAX(2-160) co-expressed, sequence (P61244 whole entry, chain 2 of 2, the tested form may be a part): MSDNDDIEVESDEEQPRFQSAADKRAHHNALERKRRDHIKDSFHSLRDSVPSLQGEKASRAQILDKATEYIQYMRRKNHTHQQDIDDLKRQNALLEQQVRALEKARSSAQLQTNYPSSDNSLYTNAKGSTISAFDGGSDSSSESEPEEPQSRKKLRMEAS
Mb0 peptide MYC(11-34), sequence (P01106 other isoform, or with tags, fused parts or gaps): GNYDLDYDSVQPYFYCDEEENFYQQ

B1: E-Box (NMR) (dsDNA)
DNA 1: CCGGTCACGTGGCCTA
DNA 2: TAGGCCACGTGACCGG
binding result (MYC(256-299)): no binding | binding result (Mb0 peptide MYC(11-34)): no binding | binding result [1]: binds

B2: Negative control (dsDNA)
DNA 1: CCGGTTTAGCAGCCTA
DNA 2: TAGGCTGCTAAACCGG
binding result [2]: no binding | binding result [3]: no binding

B3: E-Box (SPR) (dsDNA)
DNA 1: CCGGTCACGTGGCCTA
DNA 2: TAGGCCACGTGACCGG
binding result [4]: binds | binding result [5]: binds | binding result [6]: binds
